The record followed here is publication doi:10.1101/2023.04.03.535445 (bioRxiv, 2023).

The target of data set [1] is Pex5 Y358A mutant (Pex5TPR) (Trypanosoma cruzi) (UniProt Q4DPQ9). Kind of data set: ITC.
The target in data set [2] is Pex5TPR with a GSGS-spacer between the TPR domain and the Wxxx(F/Y) motif (Trypanosoma cruzi) (UniProt Q4DPQ9). Kind of data set: ITC.
Data set [3] deals with truncated Pex5 containing a single Wxxx(F/Y) motif (residues 314-666; Pex5TPR) (Trypanosoma cruzi) (UniProt Q4DPQ9). Kind of data set: ITC.
Data set [4] deals with glycosomal malate dehydrogenase (MDH, residues 1-323) of Trypanosoma cruzi (Trypanosoma cruzi) (UniProt Q4DRD8). Kind of data set: ITC.
The target in data set [5] is MDH GSGS-linker mutant (GSGS introduced between PTS1 and MDH) (Trypanosoma cruzi). Kind of data set: ITC.
For data set [6], the target named is MDH with the 62-70 loop replaced with GS-linker (Trypanosoma cruzi). Kind of data set: ITC.
The data set “cryo-EM structure” deals with the molecule itself. Kind of data set: cryo-EM structure.
Data set [7] has as its target Pex5 mutant with a partial deletion of the 457-489 loop (Pex5 Δ470-480) (Trypanosoma cruzi) (UniProt Q4DPQ9). Kind of data set: ITC.

Consider “N-terminal domain of Pex14 (Pex14NTD; residues 21-85) of Trypanosoma cruzi (domain or fragment)”, for which the fold decrease in affinity against wild type Pex5 was 1.5 fold in data set [1] and 3.5 fold in data set [2]. Moreover, in data set [3], the Kd is 53 nM.

Molecule “Pex5 P490R mutant (from UniProt Q4DPQ9 316-668) (domain or fragment)” registered a fold decrease in affinity against wild type Pex5 in data set [4] greater than 3 fold.

As to Pex14NTD(A48F) (domain or fragment), the fold decrease in affinity against wild type Pex14NTD in data set [3] is 2 fold.

The molecule “truncated Pex5 containing a single Wxxx(F/Y) motif (residues 314-666; Pex5TPR) (from UniProt Q4DPQ9 316-668) (domain or fragment)” yielded a fold increase in affinity against wild type MDH in data set [5] of 4 fold. The fold decrease in affinity against wild type MDH in data set [6] was determined as 2.5 fold. The same molecule yielded a Kd in data set [4] of 435 nM.

B1: glycosomal malate dehydrogenase (MDH, residues 1-323) of Trypanosoma cruzi (enzyme, UniProt Q4DRD8 1-323, looked up)
chain: MVNVAVIGAAGGIGQSLSLLLLRELPFGSTLSLYDVVGAPGVAADLSHIDRAGITVKHAAGKLPPVPRDPALTELAEGVDVFVIVAGVPRKPGMTRDDLFNVNAGIVMDLVLTCASVSPNACFCIVTNPVNSTTPIAAQTLRKIGVYNKNKLLGVSLLDGLRATRFINNARHPLVVPYVPVVGGHSDVTIVPLYSQIPGPLPDESTLKEIRKRVQVAGTEVVKAKAGRGSATLSMAEAGARFTMHVVKALMGLDTPMVYAYVDTDGEHECPFLAMPVVLGKNGIERRLPIGPITTVEKEMLEEAVGVVKKNIAKGETFARSKL
Regarding B1, the “stoichiometry N” value in “cryo-EM structure” stood at 4.

B2: short peptide encompassing PTS1 of MDH (residues 319-ARSKL-323) (peptide)
peptide: H-ARSKL-OH
As to B2, the fold decrease in affinity against wild type Pex5 in data set [7] amounted to 3 fold.
